In US20250170255A1 (Daiichi Sankyo, published 2025):
Blank lines part the entries; values can stand above or below the binder they belong to.

Assays:
[1] = target: T1, biotinylated human TROP2 antigen (human, UniProt P09758 27-274, C-terminal Avi tag sequence biotinylated); experiment: ELISA, anti-FLAG detection, with and without MMP1
T1 construct: extracellular domain
T1 sequence (looked up): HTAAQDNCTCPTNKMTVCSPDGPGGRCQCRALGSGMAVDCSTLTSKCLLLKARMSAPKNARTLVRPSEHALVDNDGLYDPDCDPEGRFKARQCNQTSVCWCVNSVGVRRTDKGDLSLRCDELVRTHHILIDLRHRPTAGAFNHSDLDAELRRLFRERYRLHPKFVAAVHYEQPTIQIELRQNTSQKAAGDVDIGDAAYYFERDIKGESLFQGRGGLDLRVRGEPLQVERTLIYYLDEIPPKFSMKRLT
Experimental: (§1) The resultant was then added to the plate comprising the human TROP2 antigen immobilized thereon at 50 μl/well. The bound scFv was detected using the HRP-labeled anti-FLAG antibody (Sigma-Aldrich) diluted to 5,000-fold with ELISA buffer.
The antibody was adjusted to 1 μM with the use of MMP buffer, MMP1 was added to the final concentration of 1 μM or 0 μM, and the reaction was allowed to proceed at 37° C. for 15 minutes. Thereafter, the antibody with the concentration thereof being adjusted with ELISA buffer was added to the wells.

[2] = target: T1, biotinylated human TROP2 antigen; experiment: ELISA, immobilised biotinylated human TROP2 antigen, anti-FLAG-HRP detection; after MMP1 pre-treatment (mask linker cleaved)
Experimental: (§2) NeutrAvidin (Thermo Fisher Scientific) diluted to 1 μg/ml with PBS was added at 50 μl/well to a 96-well Maxi-sorp plate (Black, Nunc) and immobilized at 4° C. overnight. The plate was washed with PBS containing 0.05% (w/v) Tween-20 (BioRad) (ELISA buffer) and then blocked with Blocker Casein (Thermo Fisher Scientific). The plate was washed with ELISA buffer, the biotinylated human TROP2 antigen (Accession Number: P09758; the extracellular domain was purified by the method known to a person skilled in the art and the C-terminal Avi tag sequence was then biotinylated) diluted to 1 μg/ml with PBS was added at 50 μl/well, and the resultant was then agitated for 30 minutes at room temperature. […] The plate was washed with ELISA buffer, the SuperSignal Pico ELISA chemiluminescent substrate (Thermo Fisher Scientific) was added, and chemiluminescence 10 minutes thereafter was then assayed using a plate reader.
as §1

TROP2 on FaDu cells = target: T2, TROP2 on FaDu cells (human, UniProt P09758 27-323); experiment: cell-based or functional assay
T2 sequence (looked up): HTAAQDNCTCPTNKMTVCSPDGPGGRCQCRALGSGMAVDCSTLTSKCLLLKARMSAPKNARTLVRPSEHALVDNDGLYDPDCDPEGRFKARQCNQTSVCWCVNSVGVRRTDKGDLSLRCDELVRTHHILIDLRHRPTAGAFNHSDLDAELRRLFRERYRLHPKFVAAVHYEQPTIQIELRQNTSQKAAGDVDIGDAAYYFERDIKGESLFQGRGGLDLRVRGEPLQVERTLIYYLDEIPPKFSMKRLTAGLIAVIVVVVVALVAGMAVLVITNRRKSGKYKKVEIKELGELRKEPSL

[3] = target: T1, biotinylated human TROP2 antigen; experiment: ELISA pH 7.5 against pH 5.5
[4] = target: T1, biotinylated human TROP2 antigen; experiment: ELISA, immobilised biotinylated human TROP2 antigen, chemiluminescence; after MMP1 pre-treatment
Experimental: (§3) NeutrAvidin (Thermo Fisher Scientific) diluted to 1 μg/ml with PBS was added at 50 μl/well to a 96-well Maxi-sorp plate (Black, Nunc) and immobilized at 4° C. overnight. The plate was washed with PBS containing 0.05% (w/v) Tween-20 (BioRad) (ELISA buffer) and then blocked with Blocker Casein (Thermo Fisher Scientific). The plate was washed with ELISA buffer, the biotinylated human TROP2 antigen (Accession Number: P09758; the extracellular domain was purified by the method known to a person skilled in the art and the C-terminal Avi tag sequence was then biotinylated) diluted to 1 μg/ml with PBS was added at 50 μl/well, and the resultant was then agitated for 30 minutes at room temperature. […] The plate was washed with ELISA buffer, 50 μl of the horseradish peroxidase (HRP)-labeled anti-human IgG antibody (Jackson Immuno Research Laboratories) diluted to 2,500-fold with ELISA buffer was added, and the resultant was then agitated for 30 minutes at room temperature. The plate was washed with ELISA buffer, the SuperSignal Pico ELISA chemiluminescent substrate (Thermo Fisher Scientific) was added, and chemiluminescence 10 minutes thereafter was then assayed using a plate reader.

[5] = target: T1, biotinylated human TROP2 antigen; experiment: ELISA, immobilised biotinylated human TROP2 antigen, chemiluminescence
Experimental: as §3

[6] = target: T1, biotinylated human TROP2 antigen; experiment: ELISA, immobilised biotinylated human TROP2 antigen, chemiluminescence; without MMP1
Experimental: as §3

[7] = target: T1, biotinylated human TROP2 antigen; experiment: ELISA, immobilised biotinylated human TROP2 antigen, chemiluminescence; pH 5.5
[8] = target: T1, biotinylated human TROP2 antigen; experiment: ELISA, immobilised biotinylated human TROP2 antigen, chemiluminescence; pH 7.5
Experimental: (§4) The plate was washed with PBS containing 0.05% (w/v) Tween-20 (BioRad) (ELISA buffer) and then blocked with Blocker Casein (Thermo Fisher Scientific). The plate was washed with ELISA buffer, the biotinylated human TROP2 antigen (Accession Number: P09758; the extracellular domain was purified by the method known to a person skilled in the art and the C-terminal Avi tag sequence was then biotinylated) diluted to 1 μg/ml with PBS was added at 50 μl/well, and the resultant was then agitated for 30 minutes at room temperature. […] The plate was washed with ELISA buffer, 50 μl of the horseradish peroxidase (HRP)-labeled anti-human IgG antibody (Jackson Immuno Research Laboratories) diluted to 2,500-fold with ELISA buffer was added, and the resultant was then agitated for 30 minutes at room temperature. The plate was washed with ELISA buffer, the SuperSignal Pico ELISA chemiluminescent substrate (Thermo Fisher Scientific) was added, and chemiluminescence 10 minutes thereafter was then assayed using a plate reader. […]

[9] = target: T1, biotinylated human TROP2 antigen; experiment: ELISA, immobilised biotinylated human TROP2 antigen, chemiluminescence; pH 5.5; remark: listed apart in the source
Experimental: as §4

[10] = target: T1, biotinylated human TROP2 antigen; experiment: ELISA, immobilised biotinylated human TROP2 antigen, chemiluminescence; pH 7.5; remark: listed apart in the source
Experimental: as §4

[11] = target: T1, biotinylated human TROP2 antigen; experiment: as above; remark: listed apart in the source
Experimental: as §4

[12] = target: T1, biotinylated human TROP2 antigen; experiment: ELISA, immobilised biotinylated human TROP2 antigen, chemiluminescence; without MMP1; remark: listed apart in the source
Experimental: as §3

[13] = target: T1, biotinylated human TROP2 antigen; experiment: ELISA with and without MMP1
[14] = target: T1, biotinylated human TROP2 antigen; experiment: ELISA, immobilised biotinylated human TROP2 antigen, chemiluminescence; after MMP1 pre-treatment (mask linker cleaved)
Experimental: as §3

[15] = target: T1, biotinylated human TROP2 antigen; experiment: ELISA, immobilised biotinylated human TROP2 antigen, anti-FLAG-HRP detection; after MMP1 pre-treatment (mask linker cleaved); remark: listed apart in the source
Experimental: as §2, §1

[16] = target: T1, biotinylated human TROP2 antigen; experiment: ELISA, immobilised biotinylated human TROP2 antigen, anti-FLAG-HRP detection; without MMP1
Experimental: as §2, §1

B1: MHT1001 (scFv)
scFv: AMGYLALKHPWPGLAENSGSGGGGSVLVPMAMMASGGSDVNSQVQLVQSGAEVKKPGASVKVSCKASGYTFTTAGMQWVRQAPGQGLEWMGWINTHSGVPKYAEDFKGRVTISADTSTSTAYLQLSSLKSEDTAVYYCARSGFGSSYWYFDVWGQGTLVTVSSGGGGSGGGGSGGGGSDIQMTQSPSSLSASVGDRVTITCKASQDVSTAVAWYQQKPGKAPKLLIYSASYRYTGVPSRFSGSGSGTDFTLTISSLQPEDFAVYYCQQHYITPLTFGQGTKLEIKRGAPSGDYKDDDDKGAAAHHHHHH
EC50 ratio of binding intensity (without MMP1 / with MMP1) [1]: 7.9 | EC50 (read off the curve) [2]: ~8 nM

B2: MHT1808-PBD-ADC (antibody, human IgG1, kappa)
heavy: not shown
light: DIQMTQSPSSLSASVGDRVTITCKASQDVSTAVAWYQQKPGKAPKLLIYSASYRYTGVPSRFSGSGSGTDFTLTISSLQPEDFAVYYCQQHYITPLTFGQGTKLEIKRTVAAPSVFIFPPSDEQLKSGTASVVCLLNNFYPREAKVQWKVDNALQSGNSQESVTEQDSKDSTYSLSSTLTLSKADYEKHKVYACEVTHQGLSSPVTKSFNRGEC
modifications: N297 glycan remodelled to azide-bearing MSG1-type glycan and conjugated to Linker 2 (PBD drug linker); average number of drugs bound 1.9
in vitro growth inhibitory activity on FaDu cells, EC50 ratio (pH 7.4/pH 5.5) (TROP2 on FaDu cells): 10.7

B3: anti-TROP2 masked antibody MHT1805 (antibody)
heavy: not shown
light: DIQMTQSPSSLSASVGDRVTITCKASQDVSTAVAWYQQKPGKAPKLLIYSASYRYTGVPSRFSGSGSGTDFTLTISSLQPEDFAVYYCQQHYITPLTFGQGTKLEIKRTVAAPSVFIFPPSDEQLKSGTASVVCLLNNFYPREAKVQWKVDNALQSGNSQESVTEQDSKDSTYSLSSTLTLSKADYEKHKVYACEVTHQGLSSPVTKSFNRGEC
notes: His cluster linker; Full-length entries
EC50 ratio (neutral pH conditions/acidic pH conditions) [3]: 2.3

B4: anti-TROP2 antibody HT1-11 (antibody)
heavy: not shown
light: DIQMTQSPSSLSASVGDRVTITCKASQDVSTAVAWYQQKPGKAPKLLIYSASYRYTGVPSRFSGSGSGTDFTLTISSLQPEDFAVYYCQQHYITPLTFGQGTKLEIKRTVAAPSVFIFPPSDEQLKSGTASVVCLLNNFYPREAKVQWKVDNALQSGNSQESVTEQDSKDSTYSLSSTLTLSKADYEKHKVYACEVTHQGLSSPVTKSFNRGEC
notes: Known antibody of WO 2015/098099; Full-length entries
EC50 (read off the curve) [4]: ~0.5 nM | EC50 (read off the curve) [5]: ~0.6 nM | EC50 (read off the curve) [6]: ~0.5 nM

B5: MHT1221-PBD-ADC (antibody, human IgG1, kappa)
heavy: not shown
light: DIQMTQSPSSLSASVGDRVTITCKASQDVSTAVAWYQQKPGKAPKLLIYSASYRYTGVPSRFSGSGSGTDFTLTISSLQPEDFAVYYCQQHYITPLTFGQGTKLEIKRTVAAPSVFIFPPSDEQLKSGTASVVCLLNNFYPREAKVQWKVDNALQSGNSQESVTEQDSKDSTYSLSSTLTLSKADYEKHKVYACEVTHQGLSSPVTKSFNRGEC
modifications: N297 glycan remodelled to azide-bearing MSG1-type glycan and conjugated to Linker 2 (PBD drug linker); average number of drugs bound 1.9
in vitro growth inhibitory activity on FaDu cells, EC50 ratio (pH 7.4/pH 5.5) (TROP2 on FaDu cells): 1.9

B10: anti-TROP2 masked antibody MHT1007 (antibody)
heavy: not shown
light: DIQMTQSPSSLSASVGDRVTITCKASQDVSTAVAWYQQKPGKAPKLLIYSASYRYTGVPSRFSGSGSGTDFTLTISSLQPEDFAVYYCQQHYITPLTFGQGTKLEIKRTVAAPSVFIFPPSDEQLKSGTASVVCLLNNFYPREAKVQWKVDNALQSGNSQESVTEQDSKDSTYSLSSTLTLSKADYEKHKVYACEVTHQGLSSPVTKSFNRGEC
notes: IgG-type; MHT1001 mimotope peptide and MMP cleavable linker fused to the heavy chain; Full-length entries
EC50 (read off the curve) [12]: ~30 nM | EC50 ratio of binding intensity (without MMP1 / with MMP1) [13]: 104 | EC50 (read off the curve) [14]: ~0.3 nM

B11: MHT1002 (scFv)
scFv: AMGYLALKHPWPGLAENSGSGGGGSVLVPMAMMASGGSDVNSDIQMTQSPSSLSASVGDRVTITCKASQDVSTAVAWYQQKPGKAPKLLIYSASYRYTGVPSRFSGSGSGTDFTLTISSLQPEDFAVYYCQQHYITPLTFGQGTKLEIKRGGGGSGGGGSGGGGSQVQLVQSGAEVKKPGASVKVSCKASGYTFTTAGMQWVRQAPGQGLEWMGWINTHSGVPKYAEDFKGRVTISADTSTSTAYLQLSSLKSEDTAVYYCARSGFGSSYWYFDVWGQGTLVTVSSGAPSGDYKDDDDKGAAAHHHHHH
notes: Mimotope peptide, MMP cleavable linker, HT1-11 scFv, FLAG tag, His tag
EC50 (read off the curve) [15]: ~3 nM | EC50 ratio of binding intensity (without MMP1 / with MMP1) [1]: 4.3 | EC50 (read off the curve) [16]: ~10 nM

The next lines start with the values.

EC50 (read off the curve) [7]: ~30 nM | EC50 ratio (neutral pH conditions/acidic pH conditions) [3]: 3.9 | EC50 (read off the curve) [8]: ~100 nM
B6: anti-TROP2 masked antibody MHT1803 (antibody)
heavy: not shown
light: DIQMTQSPSSLSASVGDRVTITCKASQDVSTAVAWYQQKPGKAPKLLIYSASYRYTGVPSRFSGSGSGTDFTLTISSLQPEDFAVYYCQQHYITPLTFGQGTKLEIKRTVAAPSVFIFPPSDEQLKSGTASVVCLLNNFYPREAKVQWKVDNALQSGNSQESVTEQDSKDSTYSLSSTLTLSKADYEKHKVYACEVTHQGLSSPVTKSFNRGEC
notes: as for B3

EC50 (read off the curve) [9]: ~5 nM | EC50 ratio (neutral pH conditions/acidic pH conditions) [3]: 11.4 | EC50 (read off the curve) [10]: ~60 nM
B7: anti-TROP2 masked antibody MHT1809 (antibody)
heavy: not shown
light: DIQMTQSPSSLSASVGDRVTITCKASQDVSTAVAWYQQKPGKAPKLLIYSASYRYTGVPSRFSGSGSGTDFTLTISSLQPEDFAVYYCQQHYITPLTFGQGTKLEIKRTVAAPSVFIFPPSDEQLKSGTASVVCLLNNFYPREAKVQWKVDNALQSGNSQESVTEQDSKDSTYSLSSTLTLSKADYEKHKVYACEVTHQGLSSPVTKSFNRGEC
notes: as for B3

EC50 ratio (neutral pH conditions/acidic pH conditions) [3]: 3.6
B8: anti-TROP2 masked antibody MHT1804 (antibody)
heavy: not shown
light: DIQMTQSPSSLSASVGDRVTITCKASQDVSTAVAWYQQKPGKAPKLLIYSASYRYTGVPSRFSGSGSGTDFTLTISSLQPEDFAVYYCQQHYITPLTFGQGTKLEIKRTVAAPSVFIFPPSDEQLKSGTASVVCLLNNFYPREAKVQWKVDNALQSGNSQESVTEQDSKDSTYSLSSTLTLSKADYEKHKVYACEVTHQGLSSPVTKSFNRGEC
notes: as for B3

EC50 (read off the curve) [11]: ~50 nM | EC50 ratio (neutral pH conditions/acidic pH conditions) [3]: 1.7
B9: anti-TROP2 masked antibody MHT1221 (antibody)
heavy: not shown
light: DIQMTQSPSSLSASVGDRVTITCKASQDVSTAVAWYQQKPGKAPKLLIYSASYRYTGVPSRFSGSGSGTDFTLTISSLQPEDFAVYYCQQHYITPLTFGQGTKLEIKRTVAAPSVFIFPPSDEQLKSGTASVVCLLNNFYPREAKVQWKVDNALQSGNSQESVTEQDSKDSTYSLSSTLTLSKADYEKHKVYACEVTHQGLSSPVTKSFNRGEC
notes: No His cluster; Full-length entries
